The record followed here is publication PMC12756002 (2025).

To fix the notation:
B1: Sis1-WT [yeast] / full-length Rnq1 [yeast] (parent complex)
chain 1: MVKETKLYDLLGVSPSANEQELKKGYRKAALKYHPDKPTGDTEKFKEISEAFEILNDPQKREIYDQYGLEAARSGGPSFGPGGPGGAGGAGGFPGGAGGFSGGHAFSNEDAFNIFSQFFGGSSPFGGADDSGFSFSSYPSGGGAGMGGMPGGMGGMHGGMGGMPGGFRSASSSPTYPEEETVQVNLPVSLEDLFVGKKKSFKIGRKGPHGASEKTQIDIQLKPGWKAGTKITYKNQGDYNPQTGRRKTLQFVIQEKSHPNFKRDGDDLIYTLPLSFKESLLGFSKTIQTIDGRTLPLSRVQPVQPSQTSTYPGQGMPTPKNPSQRGNLIVKYKVDYPISLNDAQKRAIDENF
chain 2: MDTDKLISEAESHFSQGNHAEAVAKLTSAAQSNPNDEQMSTIESLIQKIAGYVMDNRSGGSDASQDRAAGGGSSFMNTLMADSKGSSQTQLGKLALLATVMTHSSNKGSSNRGFDVGTVMSMLSGSGGGSQSMGASGLAALASQFFKSGNNSQGQGQGQGQGQGQGQGQGQGSFTALASLASSFMNSNNNNQQGQNQSSGGSSFGALASMASSFMHSNNNQNSNNSQQGYNQSYQNGNQNSQGYNNQQYQGGNGGYQQQQGQSGGAFSSLASMAQSYLGGGQTQSNQQQYNQQGQNNQQQYQQQGQNYQHQQQGQQQQQGHSSSFSALASMASSYLGNNSNSNSSYGGQQQANEYGRPQQNGQQQSNEYGRPQYGGNQNSNGQHESFNFSGNFSQQNNNGNQNRY
B2: Ssa1-WT [yeast] / Sis1-FLRnq1 complex (Sis1-WT premixed with denatured Rnq1) [yeast] (parent complex)
chain 1: not shown
chain 2: B1 chain 1
chain 3: B1 chain 2
B3: Sis1-WT [yeast] / Ssa1-WT [yeast] (parent complex)
chain 1: B1 chain 1
chain 2: not shown

One test covers variants of B1. The test is described as follows: ELISA; 400 ng denatured FL Rnq1 immobilized; Sis1 at 20 nM; detection with Sis1-specific antibody; parent: 240; read off a plot. For orientation: ELISA stands for enzyme-linked immunosorbent assay.
With chain 1 E53A, the response is ~79 Abs 450nm.

As to chain 1 E53K, the response was ~140 Abs 450nm.

As for chain 1 N56L, the response was ~60 Abs 450nm.

Turning to chain 1 S49V, the response is ~130 Abs 450nm.

The next test covers variants of B2. The test is described as follows: ELISA; Denatured Rnq1 premixed with Sis1 and immobilized; Ssa1-WT at 20 nM; detection with αSsa1 antibody; parent: 230; read off a plot.
As for chain 2 E53A, the response is ~120 Abs 450nm.

With chain 2 E53K, the response was ~110 Abs 450nm.

Consider chain 2 S49V, for which the response is ~170 Abs 450nm.

For chain 2 N56L, the response was ~89 Abs 450nm.

Variants of B3 are the subject of another test. The test can be described thus: ELISA; Ssa1 (200 nM) immobilized; Sis1 at 20 nM; detection with αSis1 antibody; parent: 130; read off a plot.
Turning to chain 1 S49V, the response was ~82 Abs 450nm.

With chain 1 N56L, the response is ~75 Abs 450nm.

In the case of chain 1 E53A, the response was ~78 Abs 450nm.

In the case of chain 1 E53K, the response is ~97 Abs 450nm.
